Read-outs that look alike come from different tables or passages of the source. Square brackets hold non-standard residues; d marks the D form. Ends that are not written are not given here. 1Nal = N[C@@H](Cc1cccc2ccccc12)C(=O)O; diphenylalanine = not defined here Bounds are passed on as bounds.

What all share (settings): modification not given
Experiment [1] concerns the target T1, insulin-degrading enzyme (recombinant human IDE) (human), P14735.
Experiment [2] has as its target T1, insulin-degrading enzyme (recombinant …). This is another data set of the same source.
Experiment [3] has the same target. The source holds these as a separate data set.
For experiment [4] the target is unchanged. This is another data set of the same source.
Experiment [5] has the same target. This is another data set of the same source.
The target is the same in experiment [6]. This is another data set of the same source.

By Ki is commonly meant the dissociation constant of the complex between target and ligand, obtained from inhibition or displacement. For the molecule [2‑benzothiophenylalanine]-Arg-Tyr [2-benzothiophenylalanine], in experiment [1], the Ki was determined as 1.1 µM. Take FRY [4-fluorophenylalanine]: in experiment [2], the Ki is 7 µM. As to FRY [3-fluorophenylalanine], in experiment [3], the Ki was found to be 7 µM. Consider [diphenylalanine]-Arg-Tyr (reading uncertain) [diphenylalanine], for which the inhibitory constant (Ki) in experiment [4] was above 500 µM. In the case of [1Nal]-Arg-Tyr [1-naphthylalanine], the Ki in experiment [5] was 0.7 µM.

FRY [4-(tert-butyl)-phenylalanine]: the Ki in experiment [6] worked out at 16 µM.

For the origin of these results see article PMC2866327, “Designed Inhibitors of Insulin-Degrading Enzyme Regulate the Catabolism and Activity of Insulin” (PLoS ONE, 2010).
